{"source": "patent US20150351390A1", "about": "“COMPOSITIONS AND METHODS FOR AUXIN-ANALOG CONJUGATION” (PIONEER HI-BRED INTERNATIONAL, INC., priority 2012, published 2015)", "molecules": {"B1": {"name": "Sm87623: GH3 protein, Selmo1|87623 (protein, listed as Selaginella moellendorffii)", "chain": "MDATAILSAIACDEQALGFMEHVTRHVSSVQDYVLQLLLEANAGTDYFQRHGLYGIPTKEEFRRLLPITTYSDMEADFQRLANGDESKTICAARVLEMLTSSGTSGGKQKLFPKSPSYDQEFVALNRVARAALNKKAPYASRGKSLQFFYVRKPGITSGGVTTTSGLSGYFTSPAFRQRKLDPESGYTSPDQVILCVDYQQASYCHLLCGLTQSQEVVSIGAPFASTLVRSLKALKDLWQELCVDIETGRVNDNIVSDLSVKHAVNALLKPDPKLAALVRRECSKSNWRGIVRRLWPRARIIQAIVTGSMQQYVPAIDFFSDGLPIASSIYAASECSTLGVNLSPVCSPYDVRYSPFPCFVYYEFLPVSSSSSSSPRRDDLVQLAEVELGREYELVITTRAGLYRYRVGDVLKVVGFKNSMPQFSFVGRAGVLLSVDTDKTDEVELHTAVTTAAAVMAKRNRGDVRLLDYTSRVNLSSQPGHYVVYWELSLDAAMESLEAELRECCSVMEESLSVVYRRNRREGSVGALEIKVVEPGTFDRIVDHVVFVGQGSIGQYKTPRCARDPAVLRILESSVVESSRAR"}, "B2": {"name": "Br040812: GH3 protein, Bra040812 (protein, listed as Brassica rapa)", "chain": "MSSIVELSSLEELTLNAEQIQDDLLEKILRLNSNTEYLRRFLHGSNDKELFKKNVPLANYEDVKPYIERVANGEPSDLISGGPVTRFFRSSGTSGGKQKIFPVNDEAIEQLGYVLALRSLVMSKHFSDNGVEQGKTMEFHYTKPESTTPSGLPVAAAFTSFFKSDYFKNRPSKSQYTSPDQVILCPDNKQSLYCHLLCGLSQRDEVVRFGATFAHALVRAIDFLESNWKELCGNIRLGHVSEWITDLGCRSSVSAIIGGPNPELADLIEQECSHKSWEGIVTRLWPKAKRIECVLTGQMAQYIPILDFYCNKLPLVSTVYGSSESIFGFNVDPLCKPQDVSYTFVPNTSYFEFLPVDHEGDMTSIVDLVNVKLGCYYEPVVTTCFGLNRYLIGDILEVTGFYNNTPQFRFVRRKNMVLSVETETTTEDDILKALARATFVLESSNLMLMDFTSSADISTFPGHYVFYWELKGKEVNDVLVLDEKTLMGCCYVLEESFGSTYRLKRRTGLIGALEIRVVEQGTFNSLTDYFISRGSSRAQYKTPLCINSSEASAVLENKVLARFHSEKSPPLDL"}, "B3": {"name": "Br029173: GH3 protein, Bra029173 (protein, listed as Brassica rapa)", "chain": "MSMWADLSDKLDEKVLEDLTSNVKQMQDDVLKEILTLNANTEYLRPFLHGSSDKELFKKNVPVTTYDDVKLFIDRVANGEPFDVISGKPVTGFSLSSGTSGGKRKMFPCNKKYLENLNFIYCYRSLVISKHFDGLEHGKGMVFNFCVPEQTTPSGLPVSAATTLFFKSDYFKNRPSYWHWSFTSPDEVILCLDNKQSLYCHLLCGIVLRDEVVKVGTAFVSTLLRVITFLEKHWKEICTNIRYGHLSEWITDISCRDSVSKILGEPNPELADLIENECNQKSWEGIIQRLWPKTKFIESIATGQMAQHIPTLEFYSNKLPLISSSYVSSETMFGININPLCKPQDVSYTFMPHFSYFEFLLVDAGDEVEIVDLVDVKLGCHYETLVTNHSGLHRYKMGDIVQVTGFYNNAPQFRFARRGNLVLSVHMEITTDQALLNAVTHAKMVLESSNLMLMDFTGYADISTTPGHYVLYWELKGKYSNDIAKIDDKVLVECCYVVEESLDNFYKEYRKNGSIGALEIRVVQQGTFDSLMEFFISQGASSTQYKTPICIKSTEAIAILERKVRARFFTDKSLSLKFSS"}, "B4": {"name": "Br016359: GH3 protein, Bra016359 (protein, listed as Brassica rapa)", "chain": "MSVISVLTEKANDKLKILEDLTSNVKQIQDNVLEEILTLNTNTEYLQRFFHGKFDKEIFKKNVPVGTYEDVKPYIQRVANGEPSNVISTRPITGFLLSSGTSGGAQKIMPWNEKFLDYLTFMYDLRMHVITNYVKGLEKGKAMMFYFTKLESTTASGLPARTASSSYLKSSYFKNRPCNWYYTYTSPDEVILCPDNKQSLYCHLLCGLVQRNEVTRMGSIFASVMVRAIKFLEDSWEELCSNIRSGQLSEWITDPGCRDSVSMVLGGPHPEVANTVEKICNEKCWKGILKRLWPRTKYIETIVTGSMAQYVPTLNYYCNDMLPLVSTIYASSETTFGLNLNPLCKPEDVSYTIMPNVSYFEFIPLDGDENDVVDLADLKLGCSYELVVTNFSGLYRIRVGDILLVTGFYNKAPQLRFIRRDNVVLSIDMDKTNEEDLFNAVNRAKLIINSSGLMLTDFTSHGDISTIPGHYVIYWEVEDKREDKTKHICMELKGDAFSECCLVMEDSFDNVYKRCRFREKTVGPLEIKVVLHGTFDSLMDFFISQGASIGQYKTPRCIGSGKPLELLEKNVVATFFSTGDCSFKN"}, "B5": {"name": "Br031718: GH3 protein, Bra031718 (protein, listed as Brassica rapa)", "chain": "MSLGCDLSVLEELTSNAKQIQDDVLTKILKANTNTEYLSRFLEGSSEKELFKKNVPVVSYEDVKPYIDRVANGEPSDILSGKPITAFFRSTGTSSGEKKIFPANDNFEDILLGLALSSLVMSKHVDGYKQGKVMIFKFIQPISTTPCGLPLAPSITIIMKSKCYRSPGKRSTTPDEIIMCTDPKQSMYCQLLCGLVQRDEVVSVGALFASVLVQIIRFLEKYWKELCSNIRSGHVSDWITDHCCRDSVSTILGEPNPELADLIENECGQESWQGIVSRLWPKTKCVETIVTGIMAQYIPALEFYSDKLPIVSSIYGSSETFFGLNVNPLCKPQHVSYTFLPNMSYFEFIHVDADGEATGEIVDLVDVKSGGYYEPLVTNYSGLYRCRVGDVLHVTGFYNNAPQFRFVRRKNTVLSIFVESTTEEDVLKALDRATVVLESSDLMLTGFTCFGDVSTVPGHYVFYLELKAKVNNDTNVLLLDEKVLVEYCCVMEESLSSFYRSLRRKDGPIGPLEVRVVQQGTFDSLMEFFVSRGASITQYKTPICINSVEASRVLEDKVLARFFSDKSPTI"}, "B6": {"name": "Br008836: GH3 protein, Bra008836 (protein, listed as Brassica rapa)", "chain": "MKPISNNDETWDATLKDLTSNVKEIQDNVLEEIITPNLKTEYLQRFNMDRFDKKLFKKNVPVVSYEDIKPDIDRVVNGESSDVISARPITGFLLSSGTSGGAQKMMPWNNKYLDNLTFAYDLRMHVITKHVKGLEEGKGMMFLFTKQETKTPSGLLARVATSSYFKSDYFTNRPSNWYYSYTSPDEVILCSNNTQSLYCHLLCGLLQRDEVVRMGSIFASVMVRAIKFLETYWEELCSNIRSGRLSEWITDLGCRSSVSLVLGGPRPDLADTIETICNQSSWKGIVTRIWPNTKYIETVVTGSMGQYVPTLNYYCSDLPLVSTTYGSSETTFGINVDPLCKPEDVSYAFMPNMSYFEFITMDGEKRDVVDLHDVKIGCTYEPVVTNFAGLYRMRVGDVLLVTGFYNNAPQFRFVRRENVVLSIDSDKTNEEDLFKAVSQAKLVLDSSDLFLEDFTSYADTSTFPGHYVIYVEVKAKGGNNHLELNEEVFSKCCSVMEDSLDNVYKRCRFKDGSVGPLEIRVVDKGTFESLMDFFINQGASTGQYKTPRCIKSGKALELMEDRVVAKFFSS"}, "B7": {"name": "Br040953: GH3 protein, Bra040953 (protein, listed as Brassica rapa)", "chain": "MMIPSYDPNDTEAGLQLLEDLTTNADAIQQQVLHQILSQNSETEYLRSFLDGESCNIQENFKNKAPVVNYEDIKPFIQRISDGDSSDILSAQPITELLTSSGTSGGKPKFMPSTAEELDRKTFFYNMLVPVMNKFVNGLDEGKGMYLLFIKPEIKTPSGLQARPVLTSYYKSEQFKNRPFNKYNVITSPNDAILCEDSQQSMYCQLLCGLVQRSDVLRLGAIFASAFLRAVKFLENHFTELCADIRTGTVASWITDSGCRDSVLSILNGPNQELADEIEALFNAKSREGILKRIWPKTKYIEVIVTGSMAQYIPTLEFYSGGLPLVSVMYASSECFFGLNINPLCKPSDVSYTLLPNMAYFEFLPVDDKSHEETHLESRSTDDVSLTDKDRIVDLVSVEIGRYYELIITTFAGLYRYRVGDILKVTGFHNKAPQFSFVERRNVVLSIDTDKTSEEDLMKAVTQAKLNHLQGLFLLTEYTSYADTSSIPGHYVLFWELKPRYDNDPPKLDKKMMEDCCSEVEDCLDYVYRRCRNKDRSIGALEIRVVSLGTFDALMDFSISQGSSVNQYKTPRCVKSGGALQILDSRVIGRFFTKRVPQWEPLGLDS"}}}
{"assay": "LC-MS assay of GH3 conjugation of 2,4-D with Asp or Glu", "format": "biochemical", "settings": "LC-MS; 2,4-D with Asp", "summary_of_the_method": "(§1)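 N-His-tagged GH3 homologs expressed in E. coli C41(DE3) and Ni-NTA purified (44 to 164 μg/mL) were incubated 3 hours at 30° C. in 20 mM Tris-HCl pH 8.0, 5 mM MgCl2, 1 mM DTT with 5 mM each of auxin, ATP and Asp or Glu. Conjugates were quantified by LC-MS against standards.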"}
{"molecule": "B1", "Detected auxin conjugates: 2,4-D-Asp": "Yes"}
{"molecule": "B2", "Detected auxin conjugates: 2,4-D-Asp": "Yes"}
{"molecule": "B3", "Detected auxin conjugates: 2,4-D-Asp": "Yes"}
{"molecule": "B4", "Detected auxin conjugates: 2,4-D-Asp": "Yes"}
{"molecule": "B5", "Detected auxin conjugates: 2,4-D-Asp": "No"}
{"molecule": "B6", "Detected auxin conjugates: 2,4-D-Asp": "Yes"}
{"molecule": "B7", "Detected auxin conjugates: 2,4-D-Asp": "Yes"}
{"assay": "LC-MS assay of GH3 conjugation of 2,4-D with Asp or Glu", "format": "biochemical", "settings": "LC-MS; 2,4-D with Glu", "summary_of_the_method": "as §1"}
{"molecule": "B1", "Detected auxin conjugates: 2,4-D-Glu": "No"}
{"molecule": "B2", "Detected auxin conjugates: 2,4-D-Glu": "Yes"}
{"molecule": "B3", "Detected auxin conjugates: 2,4-D-Glu": "Yes"}
{"molecule": "B4", "Detected auxin conjugates: 2,4-D-Glu": "No"}
{"molecule": "B5", "Detected auxin conjugates: 2,4-D-Glu": "No"}
{"molecule": "B6", "Detected auxin conjugates: 2,4-D-Glu": "Yes"}
{"molecule": "B7", "Detected auxin conjugates: 2,4-D-Glu": "Yes"}
{"assay": "LC-MS assay of GH3 conjugation of IAA with Asp or Glu", "format": "biochemical", "settings": "LC-MS; IAA with Asp", "summary_of_the_method": "as §1"}
{"molecule": "B1", "Detected auxin conjugates: IAA-Asp": "Yes"}
{"molecule": "B2", "Detected auxin conjugates: IAA-Asp": "Yes"}
{"molecule": "B3", "Detected auxin conjugates: IAA-Asp": "Yes"}
{"molecule": "B4", "Detected auxin conjugates: IAA-Asp": "Yes"}
{"molecule": "B5", "Detected auxin conjugates: IAA-Asp": "No"}
{"molecule": "B6", "Detected auxin conjugates: IAA-Asp": "Yes"}
{"molecule": "B7", "Detected auxin conjugates: IAA-Asp": "Yes"}
{"assay": "LC-MS assay of GH3 conjugation of IAA with Asp or Glu", "format": "biochemical", "settings": "LC-MS; IAA with Glu", "summary_of_the_method": "as §1"}
{"molecule": "B1", "Detected auxin conjugates: IAA-Glu": "No"}
{"molecule": "B2", "Detected auxin conjugates: IAA-Glu": "Yes"}
{"molecule": "B3", "Detected auxin conjugates: IAA-Glu": "Yes"}
{"molecule": "B4", "Detected auxin conjugates: IAA-Glu": "No"}
{"molecule": "B5", "Detected auxin conjugates: IAA-Glu": "No"}
{"molecule": "B6", "Detected auxin conjugates: IAA-Glu": "Yes"}
{"molecule": "B7", "Detected auxin conjugates: IAA-Glu": "Yes"}
{"assay": "LC-MS assay of GH3 conjugation of dicamba with Asp or Glu", "format": "biochemical", "settings": "LC-MS; dicamba with Asp", "summary_of_the_method": "(§2)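 GH3 superfamily homologs, found by Blast searches of public databases using AtGH3.17 (Q9FZ87), were synthesized with E. coli-optimized codons and an N-terminal his-tag, expressed in OverExpress C41(DE3) cells after 0.2 mM IPTG induction at 16° C., and Ni-NTA purified. Conjugation of dicamba with Asp or Glu was measured by LC-MS using conjugate standards.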"}
{"molecule": "B1", "Detected auxin conjugates: Dicamba-Asp": "No"}
{"molecule": "B2", "Detected auxin conjugates: Dicamba-Asp": "No"}
{"molecule": "B3", "Detected auxin conjugates: Dicamba-Asp": "No"}
{"molecule": "B4", "Detected auxin conjugates: Dicamba-Asp": "No"}
{"molecule": "B5", "Detected auxin conjugates: Dicamba-Asp": "No"}
{"molecule": "B6", "Detected auxin conjugates: Dicamba-Asp": "No"}
{"molecule": "B7", "Detected auxin conjugates: Dicamba-Asp": "No"}
{"assay": "LC-MS assay of GH3 conjugation of dicamba with Asp or Glu", "format": "biochemical", "settings": "LC-MS; dicamba with Glu", "summary_of_the_method": "as §2"}
{"molecule": "B1", "Detected auxin conjugates: Dicamba-Glu": "No"}
{"molecule": "B2", "Detected auxin conjugates: Dicamba-Glu": "No"}
{"molecule": "B3", "Detected auxin conjugates: Dicamba-Glu": "No"}
{"molecule": "B4", "Detected auxin conjugates: Dicamba-Glu": "No"}
{"molecule": "B5", "Detected auxin conjugates: Dicamba-Glu": "No"}
{"molecule": "B6", "Detected auxin conjugates: Dicamba-Glu": "No"}
{"molecule": "B7", "Detected auxin conjugates: Dicamba-Glu": "No"}
